Target: T1, IL-15Rα constitutively expressed on Raji cells (UniProt Q13261 31-267, limits assumed)
T1 construct: whole, on cells; also called IL-15R-expressing Raji cells
Experiment: flow cytometry, IL-15Rα-expressing Raji cells without IL-15, biotinylated 146B7, streptavidin-PE; stimulation index
Description: Raji cells are pre-incubated (20 minutes at 4° C.) with 10% human pooled AB serum (CLB, Amsterdam, Netherlands)in FACS buffer (PBS, 0.05%BSA, 0.02% NaNO₃). Raji cells (1-2*10⁵ cells/ml) were put in the wells, and 50 μl of unlabeled IL-15 was added in several concentrations (diluted in FACS buffer with 10% human AB serum). […] After washing twice in FACS buffer, 50 μl of streptavidin-phycoerythrin was added to each well (30 minutes at 4° C.). After washing twice in FACS buffer, cells were taken up in 200 μl of FACS buffer, and fluorescence intensity of at least 5000 cells per sample was determined after analysis by flow cytometry (FACS Calibur, Becton Dickinson) using CellQuest software.

T1 sequence (Q13261 31-267 limits assumed): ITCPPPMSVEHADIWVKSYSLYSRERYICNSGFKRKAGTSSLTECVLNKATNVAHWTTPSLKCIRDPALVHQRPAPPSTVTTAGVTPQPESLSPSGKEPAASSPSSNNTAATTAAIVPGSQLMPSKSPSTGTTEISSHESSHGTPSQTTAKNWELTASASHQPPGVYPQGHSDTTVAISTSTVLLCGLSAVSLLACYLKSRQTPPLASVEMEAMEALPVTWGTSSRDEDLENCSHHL

B1: human anti-IL-15 antibody 146B7 (antibody, human IgG1, V domains shown)
VH: EVQLVQSGAEVKKPGESLKISCKVSGYFFTTYWIGWVRQMPGKGLEYMGIIYPGDSDTRYSPSFQGQVTISADKSISTAYLQWSSLKASDTAMYYCARGGNWNCFDYWGQGTLVTVSS
VL: EIVLTQSPGTLSLSPGERATLSCRASQSVSSSYLAWYQQKPGQAPRLLIYGASRRATGIPDRFSGSGSGTDFTLTISRLEPEDFAVYYCQRYGSSHTFGQGTKLEISR
notes: also called MDX015
  binding result: no binding (tested: 10000 (unit not printed on the sheet))

Reference: patent publication US20040071702A1 (Genmab, published 2004)
